Numbered stars: 1 amine (or outer) side, 2 acyl side, 3 side chain; on linkers, the order of the positions; unused ones are H or OH. Square brackets hold non-standard residues; d marks the D form. Side chains are listed from the residue outwards. * marks the point of attachment. γGlu = O=C(O)[C@H](CCC(=O)[*:2])N[*:1]; Palmitoyl = CCCCCCCCCCCCCCCC(=O)*; Aib = CC(C)(N)C(=O)O
T1: human GIP receptor (human, UniProt P48546 22-466)
T1 sequence (looked up): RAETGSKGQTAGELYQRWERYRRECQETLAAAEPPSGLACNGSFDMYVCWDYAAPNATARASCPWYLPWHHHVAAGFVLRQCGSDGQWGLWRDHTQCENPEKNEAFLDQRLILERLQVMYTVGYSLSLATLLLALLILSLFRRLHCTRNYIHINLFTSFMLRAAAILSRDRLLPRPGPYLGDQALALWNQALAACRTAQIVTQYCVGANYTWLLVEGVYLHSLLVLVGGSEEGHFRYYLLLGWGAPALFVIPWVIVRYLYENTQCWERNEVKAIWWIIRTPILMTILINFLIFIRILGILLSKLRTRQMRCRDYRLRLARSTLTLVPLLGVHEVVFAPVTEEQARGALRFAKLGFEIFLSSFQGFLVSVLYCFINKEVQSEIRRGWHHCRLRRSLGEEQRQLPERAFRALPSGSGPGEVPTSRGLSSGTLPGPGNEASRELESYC

B1: Compound 53 (peptide)
peptide: H-Y[Aib]EGTFTSDYSIYLDSK([γGlu-Palmitoyl])AAHDFVEWLLSAGPSSGAPPPS-NH2
SMILES: CCCCCCCCCCCCCCCC(=O)N[C@@H](CCC(=O)NCCCC[C@H](NC(=O)[C@H](CO)NC(=O)[C@H](CC(=O)O)NC(=O)[C@H](CC(C)C)NC(=O)[C@H](Cc1ccc(O)cc1)NC(=O)[C@@H](NC(=O)[C@H](CO)NC(=O)[C@H](Cc1ccc(O)cc1)NC(=O)[C@H](CC(=O)O)NC(=O)[C@H](CO)NC(=O)[C@@H](NC(=O)[C@H](Cc1ccccc1)NC(=O)[C@@H](NC(=O)CNC(=O)[C@H](CCC(=O)O)NC(=O)C(C)(C)NC(=O)[C@@H](N)Cc1ccc(O)cc1)[C@@H](C)O)[C@@H](C)O)[C@@H](C)CC)C(=O)N[C@@H](C)C(=O)N[C@@H](C)C(=O)N[C@@H](Cc1c[nH]cn1)C(=O)N[C@@H](CC(=O)O)C(=O)N[C@@H](Cc1ccccc1)C(=O)N[C@H](C(=O)N[C@@H](CCC(=O)O)C(=O)N[C@@H](Cc1c[nH]c2ccccc12)C(=O)N[C@@H](CC(C)C)C(=O)N[C@@H](CC(C)C)C(=O)N[C@@H](CO)C(=O)N[C@@H](C)C(=O)NCC(=O)N1CCC[C@H]1C(=O)N[C@@H](CO)C(=O)N[C@@H](CO)C(=O)NCC(=O)N[C@@H](C)C(=O)N1CCC[C@H]1C(=O)N1CCC[C@H]1C(=O)N1CCC[C@H]1C(=O)N[C@@H](CO)C(N)=O)C(C)C)C(=O)O
B2: Compound 55 (peptide)
peptide: H-Y[Aib]EGTFTSDYSIYLDSKAAHDFVEWLLSAGPSSGAPPPS-NH2
SMILES: CC[C@H](C)[C@H](NC(=O)[C@H](CO)NC(=O)[C@H](Cc1ccc(O)cc1)NC(=O)[C@H](CC(=O)O)NC(=O)[C@H](CO)NC(=O)[C@@H](NC(=O)[C@H](Cc1ccccc1)NC(=O)[C@@H](NC(=O)CNC(=O)[C@H](CCC(=O)O)NC(=O)C(C)(C)NC(=O)[C@@H](N)Cc1ccc(O)cc1)[C@@H](C)O)[C@@H](C)O)C(=O)N[C@@H](Cc1ccc(O)cc1)C(=O)N[C@@H](CC(C)C)C(=O)N[C@@H](CC(=O)O)C(=O)N[C@@H](CO)C(=O)N[C@@H](CCCCN)C(=O)N[C@@H](C)C(=O)N[C@@H](C)C(=O)N[C@@H](Cc1c[nH]cn1)C(=O)N[C@@H](CC(=O)O)C(=O)N[C@@H](Cc1ccccc1)C(=O)N[C@H](C(=O)N[C@@H](CCC(=O)O)C(=O)N[C@@H](Cc1c[nH]c2ccccc12)C(=O)N[C@@H](CC(C)C)C(=O)N[C@@H](CC(C)C)C(=O)N[C@@H](CO)C(=O)N[C@@H](C)C(=O)NCC(=O)N1CCC[C@H]1C(=O)N[C@@H](CO)C(=O)N[C@@H](CO)C(=O)NCC(=O)N[C@@H](C)C(=O)N1CCC[C@H]1C(=O)N1CCC[C@H]1C(=O)N1CCC[C@H]1C(=O)N[C@@H](CO)C(N)=O)C(C)C
B3: Compound 52 (peptide)
peptide: H-Y[Aib]EGTFTSDYSIYLDEK([γGlu-Palmitoyl])AAKDFVEWLLSA-NH2
SMILES: CCCCCCCCCCCCCCCC(=O)N[C@@H](CCC(=O)NCCCC[C@H](NC(=O)[C@H](CCC(=O)O)NC(=O)[C@H](CC(=O)O)NC(=O)[C@H](CC(C)C)NC(=O)[C@H](Cc1ccc(O)cc1)NC(=O)[C@@H](NC(=O)[C@H](CO)NC(=O)[C@H](Cc1ccc(O)cc1)NC(=O)[C@H](CC(=O)O)NC(=O)[C@H](CO)NC(=O)[C@@H](NC(=O)[C@H](Cc1ccccc1)NC(=O)[C@@H](NC(=O)CNC(=O)[C@H](CCC(=O)O)NC(=O)C(C)(C)NC(=O)[C@@H](N)Cc1ccc(O)cc1)[C@@H](C)O)[C@@H](C)O)[C@@H](C)CC)C(=O)N[C@@H](C)C(=O)N[C@@H](C)C(=O)N[C@@H](CCCCN)C(=O)N[C@@H](CC(=O)O)C(=O)N[C@@H](Cc1ccccc1)C(=O)N[C@H](C(=O)N[C@@H](CCC(=O)O)C(=O)N[C@@H](Cc1c[nH]c2ccccc12)C(=O)N[C@@H](CC(C)C)C(=O)N[C@@H](CC(C)C)C(=O)N[C@@H](CO)C(=O)N[C@@H](C)C(N)=O)C(C)C)C(=O)O
B4: Compound 36 (peptide)
peptide: YAEGTFTSDYSIALDKKAQRAFVNWLVAAKPSSGAPPPS
modifications: Aib at 2 and 29; K(hexadecanoyl-isoGlu) at 17; C-terminal amide
B5: Compound 5 (peptide)
peptide: H-Y[Aib]EGTFTSDYSIYLDKKAQRAFVNWLLA[Aib]K-NH2
SMILES: CC[C@H](C)[C@H](NC(=O)[C@H](CO)NC(=O)[C@H](Cc1ccc(O)cc1)NC(=O)[C@H](CC(=O)O)NC(=O)[C@H](CO)NC(=O)[C@@H](NC(=O)[C@H](Cc1ccccc1)NC(=O)[C@@H](NC(=O)CNC(=O)[C@H](CCC(=O)O)NC(=O)C(C)(C)NC(=O)[C@@H](N)Cc1ccc(O)cc1)[C@@H](C)O)[C@@H](C)O)C(=O)N[C@@H](Cc1ccc(O)cc1)C(=O)N[C@@H](CC(C)C)C(=O)N[C@@H](CC(=O)O)C(=O)N[C@@H](CCCCN)C(=O)N[C@@H](CCCCN)C(=O)N[C@@H](C)C(=O)N[C@@H](CCC(N)=O)C(=O)N[C@@H](CCCNC(=N)N)C(=O)N[C@@H](C)C(=O)N[C@@H](Cc1ccccc1)C(=O)N[C@H](C(=O)N[C@@H](CC(N)=O)C(=O)N[C@@H](Cc1c[nH]c2ccccc12)C(=O)N[C@@H](CC(C)C)C(=O)N[C@@H](CC(C)C)C(=O)N[C@@H](C)C(=O)NC(C)(C)C(=O)N[C@@H](CCCCN)C(N)=O)C(C)C
B6: Compound 54 (peptide)
peptide: H-Y[Aib]EGTFTSDYSIYLEKK([γGlu-Palmitoyl])AAKEFVEWLLSAGPSSGAPPPS-NH2
SMILES: CCCCCCCCCCCCCCCC(=O)N[C@@H](CCC(=O)NCCCC[C@H](NC(=O)[C@H](CCCCN)NC(=O)[C@H](CCC(=O)O)NC(=O)[C@H](CC(C)C)NC(=O)[C@H](Cc1ccc(O)cc1)NC(=O)[C@@H](NC(=O)[C@H](CO)NC(=O)[C@H](Cc1ccc(O)cc1)NC(=O)[C@H](CC(=O)O)NC(=O)[C@H](CO)NC(=O)[C@@H](NC(=O)[C@H](Cc1ccccc1)NC(=O)[C@@H](NC(=O)CNC(=O)[C@H](CCC(=O)O)NC(=O)C(C)(C)NC(=O)[C@@H](N)Cc1ccc(O)cc1)[C@@H](C)O)[C@@H](C)O)[C@@H](C)CC)C(=O)N[C@@H](C)C(=O)N[C@@H](C)C(=O)N[C@@H](CCCCN)C(=O)N[C@@H](CCC(=O)O)C(=O)N[C@@H](Cc1ccccc1)C(=O)N[C@H](C(=O)N[C@@H](CCC(=O)O)C(=O)N[C@@H](Cc1c[nH]c2ccccc12)C(=O)N[C@@H](CC(C)C)C(=O)N[C@@H](CC(C)C)C(=O)N[C@@H](CO)C(=O)N[C@@H](C)C(=O)NCC(=O)N1CCC[C@H]1C(=O)N[C@@H](CO)C(=O)N[C@@H](CO)C(=O)NCC(=O)N[C@@H](C)C(=O)N1CCC[C@H]1C(=O)N1CCC[C@H]1C(=O)N1CCC[C@H]1C(=O)N[C@@H](CO)C(N)=O)C(C)C)C(=O)O

Columns and labels:
human GIP receptor = biological target: T1, human GIP receptor; test: cell-based or functional assay
human GLP-1 receptor = human GLP-1 receptor (human, UniProt P43220 24-463); test: cell-based or functional assay

Binder	EC50, cAMP induction in HEK293 cells expressing human GIP R (human GIP receptor) [nM]	EC50, cAMP induction in HEK293 cells expressing human GLP-1 R (human GLP-1 receptor) [nM]
B1	0.062	0.092
B2	0.0071	0.0087
B3	0.087	0.18
B4	–	0.015
B5	0.031	0.023
B6	0.037	0.033
